Tests used:
Test in all cases: flow cytometry on cells displaying the construct
[1] = molecular target: T1, CID1875 (human-chicken GUCY2c chimera) (human/chicken)
T1 chain: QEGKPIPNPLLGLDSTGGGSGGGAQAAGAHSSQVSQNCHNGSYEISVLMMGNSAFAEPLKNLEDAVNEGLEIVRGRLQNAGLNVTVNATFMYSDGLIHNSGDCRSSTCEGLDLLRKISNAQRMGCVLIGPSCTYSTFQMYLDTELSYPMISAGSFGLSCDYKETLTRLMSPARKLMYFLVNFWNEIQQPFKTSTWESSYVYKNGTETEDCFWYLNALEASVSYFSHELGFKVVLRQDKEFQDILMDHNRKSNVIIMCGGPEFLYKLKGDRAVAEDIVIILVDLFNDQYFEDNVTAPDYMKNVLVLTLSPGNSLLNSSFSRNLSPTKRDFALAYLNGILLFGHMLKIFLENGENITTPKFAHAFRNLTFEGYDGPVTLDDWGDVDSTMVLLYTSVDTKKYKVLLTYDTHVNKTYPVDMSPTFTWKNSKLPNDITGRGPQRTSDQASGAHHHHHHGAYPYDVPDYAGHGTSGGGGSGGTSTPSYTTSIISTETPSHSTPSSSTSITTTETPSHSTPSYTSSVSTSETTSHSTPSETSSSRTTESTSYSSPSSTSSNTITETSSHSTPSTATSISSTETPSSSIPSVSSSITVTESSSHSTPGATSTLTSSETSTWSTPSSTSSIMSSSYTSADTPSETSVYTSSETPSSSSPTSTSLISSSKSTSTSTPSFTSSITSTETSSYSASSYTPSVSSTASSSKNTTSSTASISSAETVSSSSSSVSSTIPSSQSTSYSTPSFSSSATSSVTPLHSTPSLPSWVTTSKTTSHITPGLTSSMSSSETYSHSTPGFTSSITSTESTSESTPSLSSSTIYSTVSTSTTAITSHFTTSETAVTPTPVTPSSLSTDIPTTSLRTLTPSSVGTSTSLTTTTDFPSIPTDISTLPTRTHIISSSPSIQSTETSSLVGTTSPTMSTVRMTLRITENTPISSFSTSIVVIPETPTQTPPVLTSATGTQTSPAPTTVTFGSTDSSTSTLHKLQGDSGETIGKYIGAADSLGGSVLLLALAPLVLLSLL
Excerpt: (§1) Cells were then washed three times with PBS+0.5% BSA buffer. […] Cells were washed three times with PBS+0.5% BSA buffer and then analyzed on a flow cytometer.
(§2) MFI (median fluorescence intensity) of anti-GUCY2c antibody binding to the cells was normalized to expression on cell surface measured by MFI of anti-tag antibodies. All the cells expressed V5 and HA on the cell surface for expression normalization.

[2] = molecular target: T2, CID1877 (human-chicken GUCY2c chimera) (human/chicken)
T2 chain: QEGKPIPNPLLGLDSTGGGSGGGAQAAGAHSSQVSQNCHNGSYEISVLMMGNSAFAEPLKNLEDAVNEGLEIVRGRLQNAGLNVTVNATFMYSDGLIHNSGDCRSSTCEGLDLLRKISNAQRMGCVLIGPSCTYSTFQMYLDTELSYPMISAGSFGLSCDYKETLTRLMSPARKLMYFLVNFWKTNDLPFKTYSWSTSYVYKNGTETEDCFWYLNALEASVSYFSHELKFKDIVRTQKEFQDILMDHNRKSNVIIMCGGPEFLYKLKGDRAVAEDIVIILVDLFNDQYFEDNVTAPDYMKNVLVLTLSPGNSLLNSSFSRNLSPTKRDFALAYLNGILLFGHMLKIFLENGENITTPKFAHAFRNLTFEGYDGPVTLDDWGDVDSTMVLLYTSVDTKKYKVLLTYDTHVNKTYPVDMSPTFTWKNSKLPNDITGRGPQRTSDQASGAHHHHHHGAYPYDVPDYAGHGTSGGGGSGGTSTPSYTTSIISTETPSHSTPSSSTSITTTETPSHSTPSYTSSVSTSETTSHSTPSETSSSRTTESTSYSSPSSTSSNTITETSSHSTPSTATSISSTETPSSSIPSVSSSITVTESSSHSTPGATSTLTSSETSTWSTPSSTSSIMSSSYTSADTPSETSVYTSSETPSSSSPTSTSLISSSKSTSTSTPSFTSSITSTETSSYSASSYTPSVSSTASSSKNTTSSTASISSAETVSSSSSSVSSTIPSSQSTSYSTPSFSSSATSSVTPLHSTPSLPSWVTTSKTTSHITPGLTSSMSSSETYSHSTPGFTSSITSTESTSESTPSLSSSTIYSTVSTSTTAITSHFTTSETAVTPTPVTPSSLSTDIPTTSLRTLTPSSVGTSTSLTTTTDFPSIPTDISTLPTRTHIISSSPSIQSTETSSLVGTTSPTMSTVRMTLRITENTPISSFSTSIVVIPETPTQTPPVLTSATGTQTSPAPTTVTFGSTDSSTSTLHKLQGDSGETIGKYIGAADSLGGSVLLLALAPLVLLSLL
Excerpt: as §1, §2

[3] = molecular target: CID1948 (human GUCY2c point mutant) (human)
Excerpt: as §1, §2

Measured: binding result

B1: GUCY2C-1608 (bispecific antibody)
chain 1: DIQLTQSPSSLSASVGDRVTITCRASESVDYYGSSLLQWYQQKPGKAPKLLIYAASKLASGVPSRFSGSGSGTDFTLTISSLQPEDFATYYCQQTRKAYTFGQGTKLEIKGGGSGGGGEVQLVESGGGLVQPGGSLRLSCAASGFTFSDYYMTWVRQAPGKGLEWVAFIRNQARGYTSDHNPSVKGRFTISRDNAKNSLYLQMNSLRAEDTAVYYCARDRPSYYVLDYWGQGTTVTVSSGCPPCPAPEAAGAPSVFLFPPKPKDTLMISRTPEVTCVVVDVSHEDPEVKFNWYVDGVEVHNAKTKPREEQYNSTYRVVSVLTVLHQDWLNGKEYKCKVSNKALPAPIEKTISKAKGQPREPQVCTLPPSREEMTKNQVSLWCLVKGFYPSDIAVEWESNGQPENNYKTTPPVLDSDGSFFLYSKLTVDKSRWQQGNVFSCSVMHEALHNHYTQKSLSLSPG
chain 2: DIQMTQSPSSLSASVGDRVTITCTSSQSLFNVRSQKNYLAWYQQKPGKAPKLLIYWASTRESGVPSRFSGSGSGTDFTLTISSLQPEDFATYYCKQSYDLFTFGGGTKVEIKGGGGSGGGGEVQLVESGGGLVQPGGSLRLSCAASGFTFSSYWMHWVRQAPGKGLEWIGEIKPSNELTNVHEKFKDRFTISVDKAKNSAYLQMNSLRAEDTAVYYCTRTITTTEGYWFFDVWGQGTLVTVSSGCPPCPAPEAAGAPSVFLFPPKPKDTLMISRTPEVTCVVVDVSHEDPEVKFNWYVDGVEVHNAKTKPREEQYNSTYRVVSVLTVLHQDWLNGKEYKCKVSNKALPAPIEKTISKAKGQPREPQVYTLPPCREEMTKNQVSLSCAVKGFYPSDIAVEWESNGQPENNYKTTPPVLDSDGSFFLVSKLTVDKSRWQQGNVFSCSVMHEALHNHYTQKSLSLSPG
notes: also called GUCY2c CD3 bispecific
binds: all assays above

From patent publication US20230340151A1 (Pfizer, published 2023)
